Columns and labels:
Assay in all cases: IEDB peptide-MHC binding, purified MHC/direct/fluorescence; filed as Kd, often an IC50 or EC50 that approximates it; ≥ and ≤ were set here for values at or beyond the usual limits of such assays
HLA-A*24:03 = molecular target: HLA-A*24:03
HLA-C*05:01 = molecular target: HLA-C*05:01
HLA-C*12:03 = settings: source organism: Toxoplasma gondii ME49
HLA-B*58:01 = molecular target: HLA-B*58:01
HLA-B*57:01 = molecular target: HLA-B*57:01
HLA-B*48:01 = settings: source organism: Brucella suis
HLA-B*27:05 = molecular target: HLA-B*27:05
HLA-B*73:01 = molecular target: HLA-B*73:01
HLA-B*07:02 = settings: source organism: Salmonella enterica
HLA-B*40:01 = settings: source organism: Salmonella enterica
HLA-A*01:01 = settings: source organism: Salmonella enterica
HLA-A*30:01 = settings: source organism: Salmonella enterica subsp. enterica serovar Typhimurium
HLA-A*69:01 = molecular target: HLA-A*69:01
HLA-B*44:02 = settings: source organism: Salmonella enterica
HLA-A*02:01 = molecular target: HLA-A*02:01
HLA-B*08:01 = settings: source organism: Salmonella enterica
HLA-A*03:01 = molecular target: HLA-A*03:01
HLA-A*31:01 = settings: source organism: Salmonella enterica
HLA-A*26:01 = molecular target: HLA-A*26:01
HLA-B*15:01 = molecular target: HLA-B*15:01
HLA-A*68:02 = settings: source organism: Salmonella enterica subsp. enterica serovar Berta
HLA-A*02:12 = molecular target: HLA-A*02:12
HLA-A*02:16 = molecular target: HLA-A*02:16
HLA-A*02:19 = molecular target: HLA-A*02:19
HLA-A*23:01 = settings: source organism: Salmonella enterica subsp. enterica serovar Berta
HLA-A*02:11 = molecular target: HLA-A*02:11
HLA-B*46:01 = molecular target: HLA-B*46:01
HLA-B*51:01 = molecular target: HLA-B*51:01
HLA-A*02:03 = molecular target: HLA-A*02:03
HLA-B*18:01 = molecular target: HLA-B*18:01
HLA-B*27:03 = molecular target: HLA-B*27:03
HLA-A*29:02 = settings: source organism: Salmonella enterica subsp. enterica serovar Berta
HLA-B*15:17 = settings: source organism: Salmonella enterica subsp. enterica serovar Berta
HLA-B*39:01 = settings: source organism: Vibrio parahaemolyticus AQ3810
[1] = source organism: Toxoplasma gondii
[2] = source organism: Salmonella enterica
[3] = source organism: Salmonella enterica subsp. enterica serovar Typhimurium
[4] = source organism: Salmonella enterica subsp. enterica serovar Berta
[5] = source organism: Vibrio parahaemolyticus AQ3810

In the case of QYDVPMVSF, the Kd (HLA-A*24:03; source organism: Mycobacterium tuberculosis) is reported as 0.0184 µM and the Kd (HLA-C*05:01; source organism: Mycobacterium tuberculosis H37Rv) is reported as at least 20 µM.
RATSHVPEF was tested, and the Kd (HLA-C*12:03) was 0.148 µM, the Kd (HLA-B*58:01; [1]) was at least 20 µM and the Kd (HLA-B*57:01; [1]) was at least 20 µM. For the same sequence, the Kd (HLA-C*05:01; source organism: Toxoplasma gondii ME49) was at least 20 µM.
Sequence RRTKLPLTK has a Kd (HLA-B*48:01) of at least 20 µM, a Kd (HLA-B*27:05; source organism: Brucella suis) of 0.0792 µM and a Kd (HLA-B*73:01; source organism: Brucella suis 1330) of at least 20 µM.
In the case of RKAGVNQAK, the Kd (HLA-B*07:02) is reported as at least 20 µM, the Kd (HLA-B*58:01; [2]) is reported as at least 20 µM and the Kd (HLA-B*40:01) is reported as at least 20 µM. The Kd (HLA-A*01:01) was at least 20 µM, the Kd (HLA-A*30:01) was 12.9 µM and the Kd (HLA-A*69:01; [2]) was at least 20 µM. It also gave a Kd (HLA-B*44:02) of at least 20 µM, a Kd (HLA-A*02:01; [2]) of at least 20 µM and a Kd (HLA-B*08:01) of at least 20 µM. It also gave a Kd (HLA-B*27:05; [3]) of 0.224 µM, a Kd (HLA-A*03:01; [3]) of at least 20 µM and a Kd (HLA-A*31:01) of at least 20 µM. The Kd (HLA-A*26:01; [2]) was at least 20 µM, the Kd (HLA-B*15:01; [2]) was at least 20 µM and the Kd (HLA-B*73:01; source organism: Salmonella enterica subsp. enterica serovar Typhimurium str. LT2) was at least 20 µM.
For HQDDGQPRL, the Kd (HLA-A*24:03; [4]) was at least 20 µM, the Kd (HLA-A*68:02) was at least 20 µM and the Kd (HLA-A*02:12; [4]) was at least 20 µM. It also gave a Kd (HLA-A*02:16; [4]) of at least 20 µM, a Kd (HLA-A*02:19; [4]) of at least 20 µM and a Kd (HLA-A*23:01) of at least 20 µM. It also gave a Kd (HLA-A*02:11; [4]) of at least 20 µM, a Kd (HLA-B*46:01; [4]) of at least 20 µM and a Kd (HLA-A*69:01; [4]) of at least 20 µM. For the same sequence, the Kd (HLA-B*51:01; [4]) was at least 20 µM, the Kd (HLA-A*02:03; [4]) was at least 20 µM and the Kd (HLA-B*57:01; [4]) was at least 20 µM. The Kd (HLA-A*02:01; [4]) was at least 20 µM, the Kd (HLA-B*18:01; [4]) was at least 20 µM and the Kd (HLA-A*03:01; [4]) was at least 20 µM. The Kd (HLA-B*27:03; [4]) was at least 20 µM, the Kd (HLA-A*26:01; [4]) was at least 20 µM and the Kd (HLA-B*15:01; [4]) was at least 20 µM. For the same sequence, the Kd (HLA-A*29:02) was at least 20 µM and the Kd (HLA-B*15:17) was at least 20 µM.
For EPFLVQFWI, the Kd (HLA-A*24:03; [5]) was at least 20 µM, the Kd (HLA-A*02:12; [5]) was at least 20 µM and the Kd (HLA-A*02:16; [5]) was at least 20 µM. For the same sequence, the Kd (HLA-A*02:19; [5]) was at least 20 µM, the Kd (HLA-A*02:11; [5]) was at least 20 µM and the Kd (HLA-B*46:01; [5]) was at least 20 µM. It also gave a Kd (HLA-B*51:01; [5]) of 0.193 µM, a Kd (HLA-A*02:03; [5]) of at least 20 µM and a Kd (HLA-B*57:01; [5]) of at least 20 µM. The Kd (HLA-A*02:01; [5]) was at least 20 µM, the Kd (HLA-B*18:01; [5]) was at least 20 µM and the Kd (HLA-A*03:01; [5]) was at least 20 µM. The Kd (HLA-B*39:01) was at least 20 µM, the Kd (HLA-B*27:03; [5]) was at least 20 µM and the Kd (HLA-A*26:01; [5]) was at least 20 µM. It also gave a Kd (HLA-B*15:01; [5]) of at least 20 µM.
